“Also recorded” adds a separate entry of the source.
Assays:
Format in all cases: cell-based, human
[1] = tested on: hES-derived cell aggregates; assay: Cell aggregate size / cell mass in suspension culture (imaging)
Procedure: Preliminary studies were performed using Heregulin and FGF. In certain of these studies, Rho-kinase inhibitor, Y-27632, was included. […] An increase in cell aggregate size is advantageous in that it results in higher cell mass for later implantation and testing for function in animals.
(§1) Various growth factors were explored for their ability to suppress genes such as NGN3 during stages 3 and 4. One candidate growth factor was Activin which has diverse functions in stem cell expansion and differentiation. For example, at low levels (e.g. 10 ng/mL), Activin helps maintain pluripotent stem cell pluripotency and cell proliferation. At higher levels (e.g. 100 ng/mL) Activin acts as a differentiation growth factor responsible for definitive endoderm production at stage 1 (see e.g., Table 8). To test its effect on repressing cells committed to the endocrine lineage (CHGA+) during PEC formation, Applicant first tested Activin at a mid-level concentration of about 50 ng/mL with standard adherent differentiation.
(§2) So, Activin levels less than about 25 ng/mL are acceptable for maintaining cell mass and yield. Applicant then performed flow cytometry analysis on these cell cultures to determine whether Activin at low levels during stages 3 and 4 had any effect on cell aggregate composition; see Table 14. […] Advantageously, the PDX1 only and Triple Negative sub-populations are reduced as compared to the control, particularly when Activin is used in stages 3 and 4.
Pluripotent stem cells were differentiated using the standard protocol according to Table 8, except during stage 3, Activin was included at 10 ng/mL or 20 ng/mL in combination with Heregulin at 2 ng/mL or 10 ng/mL; and during stage 4, Activin was reduced to 5 ng/mL with Heregulin at 1 ng/mL for two days then at 10 ng/mL thereafter. […] Increasing Activin to 20 ng/mL with Heregulin remaining the same at 2 ng/mL exacerbated the cell loss (compare FIGS. 12B and 12C, top panel). […]

[2] = tested on: NGN3, NKX2.2, NKX6.1, PDX1 expression; assay: Quantitative PCR of relative gene expression in PEC cultures (NGN3, NKX2.2, NKX6.1, PDX1)
Procedure: The progression of pluripotent cells to various multipotent and/or differentiated cells can be monitored by determining the relative expression of genes, or gene markers, characteristic of a specific cell, as compared to the expression of a second or control gene, e.g., housekeeping genes. In some processes, the expression of certain markers is determined by detecting the presence or absence of the marker. Alternatively, the expression of certain markers can be determined by measuring the level at which the marker is present in the cells of the cell culture or cell population. In such processes, the measurement of marker expression can be qualitative or quantitative. One method of quantitating the expression of markers that are produced by marker genes is through the use of quantitative PCR (Q-PCR). Methods of performing Q-PCR are well known in the art. Other methods which are known in the art can also be used to quantitate marker gene expression. For example, the expression of a marker gene product can be detected by using antibodies specific for the marker gene product of interest.
as §1
Quantitative PCR analysis was performed to determine the relative levels of gene expression at days 8, 10 and 12 of differentiation with the above combinations of Activin and Heregulin (FIG. 13). […]

PEC derived from hESC = assay: Flow cytometry analysis of PEC derived from hESC (CHGA, NKX6.1, PDX1 sub-populations)
Procedure: as §2
To determine the cell composition of the PEC population with the combination of Activin, Heregulin and Wnt during stage 3, flow cytometry was performed after stage 4 and the PEC cellular composition is shown in Table 14. […] Data from flow cytometry supports and is consistent with data from QPCR that the combination of the three factors (AHW) in general delayed or suppressed differentiation of cells committed to the endocrine lineage (CHGA+) in PEC without affecting the production of the non-endocrine (CHGA−) sub-population. The delayed expression of these genes in vitro is consistent with their on-set (or delay) in in vivo mammalian pancreatic development, whereby NGN3 expression in endocrine differentiation occurs after the on-set of PDX1 and NKX6.1 expression in the non-endocrine (CHGA−) sub-population. Additionally, there was no compromise in the PEC mass and yield. […]
Undifferentiated human ESC were expanded and differentiated substantially as described above in Table 17 Protocol #1 for stages 1-4 and in Schulz et al. (2012) supra, except that during the three (3) days of stage 3, 4 different conditions were compared: (i) 0 noggin (“no noggin”) for all 3 days; (ii) 1 day of Noggin at 50 ng/mL and 2 days with no additional Noggin; (iii) 2 days of Noggin at 50 ng/mL and 1 day with no additional noggin; and (iv) 3 days of Noggin at 50 ng/mL. After stage 3, each of these conditions (i) through (iv) then received the standard stage 4 differentiation media cocktail according to Table 8 and Table 17, but without additional Noggin. […] Moreover, with each additional day of noggin treatment, fewer non-endocrine multipotent pancreatic progenitor sub-populations were produced (compare 90.6% with no noggin to 64.6% with 3 days of noggin treatment).

[3] = tested on: INS, GCG, SST, GHRL, PDX1, NKX6.1, NGN3, ID1 expression; assay: Nanostring mRNA analysis of endocrine cell cultures
[4] = A5 Stg3&4: 5 ng/mL Activin at stages 3 and 4
[5] = A5 Stg3: 5 ng/mL Activin at stage 3
[6] = A10 Stg3: 10 ng/mL Activin at stage 3
[7] = N50-1day: Noggin 50 ng/mL for 1 day of stage 3, after stage 4
[8] = N50-2day: Noggin 50 ng/mL for 2 days of stage 3, after stage 4
[9] = N50-3d: Noggin 50 ng/mL for 3 days of stage 3, after stage 4

B1: Activin: TGFβ superfamily growth factor (protein, UniProt P08476 311-426, looked up)
Inhibin beta A chain: GLECDGKVNICCKKQFFVSFKDIGWNDWIIAPSGYHANYCEGECPSHIAGTSGSSLSFHSTVINHYRMRGHSPFANLKSCCVPTKLRPMSMLYYDDGQNIIKKDIQNMIVEECGCS
modifications: Inhibin beta A chain
notes: TGFβ superfamily growth factor
- cell mass and yield of aggregates ([1]; 5 ng/mL and 10 ng/mL at stages 3 and 4): capable of maintaining cell mass and yield
- cell mass of aggregates ([1]; 50 ng/mL during stage 3, cell aggregate suspension culture): the overall cell mass drastically decreased
- Activin levels acceptable for maintaining cell mass and yield ([1]; stages 3 and 4, suspension culture): less than 25 ng/mL
- NGN3 and NKX2.2 expression ([2]; 10 and 20 ng/mL at stage 3 with Heregulin, days 8, 10 and 12): capable of repressing NGN3 and NKX2.2
- NGN3, PDX1 and NKX6.1 gene expression in PEC ([2]; about 50 ng/mL, standard adherent differentiation): capable of suppressing NGN3 expression without suppressing PDX1 and NKX6.1 gene expression
- CHGA+ (Endocrine) (PEC derived from hESC; [4]): 54.9%
- CHGA−/NKX6.1+/PDX1+ (Non-endocrine) (PEC derived from hESC; [4]): 38%
- CHGA−/NKX6.1−/PDX1+ (PDX ONLY) (PEC derived from hESC; [4]): 4.1%
- CHGA−/NKX6.1−/PDX1− (Residual or Triple Negative) (PEC derived from hESC; [4]): 2%
- CHGA+ (Endocrine) (PEC derived from hESC; [5]): 54.7%
- CHGA−/NKX6.1+/PDX1+ (Non-endocrine) (PEC derived from hESC; [5]): 31.7%
- CHGA−/NKX6.1−/PDX1+ (PDX ONLY) (PEC derived from hESC; [5]): 6.7%
- CHGA−/NKX6.1−/PDX1− (Residual or Triple Negative) (PEC derived from hESC; [5]): 5.4%
- CHGA+ (Endocrine) (PEC derived from hESC; [6]): 56.2%
- CHGA−/NKX6.1+/PDX1+ (Non-endocrine) (PEC derived from hESC; [6]): 33.7%
- CHGA−/NKX6.1−/PDX1+ (PDX ONLY) (PEC derived from hESC; [6]): 4.6%
- CHGA−/NKX6.1−/PDX1− (Residual or Triple Negative) (PEC derived from hESC; [6]): 3.9%

B2: BMP: BMP4, member of the bone morphogenetic protein family (protein, UniProt P12644 293-408, looked up)
Bone morphogenetic protein 4: SPKHHSQRARKKNKNCRRHSLYVDFSDVGWNDWIVAPPGYQAFYCHGDCPFPLADHLNSTNHAIVQTLVNSVNSSIPKACCVPTELSAISMLYLDEYDKVVLKNYQEMVVEGCGCR
- Insulin and PDX1 expression ([3]; 10 ng/mL at stages 6 and 7 or stage 7 alone): simultaneously increase Insulin and PDX1 expression
- pancreatic-lineage gene expression ([3]; agent at days 30-35 during stage 7, analyzed at d35): increases expression of INS, PDX1 and IDI; also recorded: decreased GHRL expression
- ID1 gene expression ([3]; stages 6 and 7): up-regulate inhibitor-of-differentiation (ID) gene expression

B3: noggin: protein that inactivates TGFβ superfamily signaling proteins such as BMP4 (protein, UniProt Q13253 28-232, looked up)
Noggin: QHYLHIRPAPSDNLPLVDLIEHPDPIFDPKEKDLNETLLRSLLGGHYDPGFMATSPPEDRPGGGGGAAGGAEDLAELDQLLRQRPSGAMPSEIKGLEFSEGLAQGKKQRLSKKLRRKLQMWLWSQTFCPVLYAWNDLGSRFWPRYVKVGSCFSKRSCSVPEGMVCKPSKSVHLTVLRWRCQRRGGQRCGWIPIQYPIISECKCSC
- endocrine lineage marker expression (NKX2.2, INS) ([2]; each additional day of noggin treatment, after stage 4 (day 12)): increased levels of endocrine lineage marker expression
- non-endocrine multipotent pancreatic progenitor sub-population (PEC derived from hESC; 3 days of Noggin at 50 ng/mL at stage 3, after stage 4): 64.6%
- CHGA+ (Endocrine) (PEC derived from hESC; [7]): 11.9%
- CHGA−/NKX6.1+ (Non-endocrine) (PEC derived from hESC; [7]): 82%
- CHGA+ (Endocrine) (PEC derived from hESC; [8]): 25.1%
- CHGA−/NKX6.1+ (Non-endocrine) (PEC derived from hESC; [8]): 71.9%
- CHGA+ (Endocrine) (PEC derived from hESC; [9]): 32.5%
- CHGA−/NKX6.1+ (Non-endocrine) (PEC derived from hESC; [9]): 64.6%
- production of cells committed to the endocrine lineage (CHGA+) (PEC derived from hESC; each additional day of noggin treatment at stage 3): increased levels of production of cells committed to the endocrine lineage (CHGA+)

Source: patent publication US10376545B2, “Methods for producing hormone secreting cells in a subject” (ViaCyte, Inc., priority 2013, dated 2019)
